{"source": "patent US20150246953A1", "about": "(Scripps Research, published 2015)", "binders": {"B1": {"name": "IgG from multiple myeloma patient plasma 13PL (antibody, V domains shown)", "VH": "AVSLVESGGGTVEPGSTLRLSCAASGFTFGSYAFHWVRQAPGDGLEWVAFISYNGSSKYYANFVKGRFTISRDNSSNTLSLQMNSLKASDTAVYYCARAPDCAQADCHKGAFGYWGQGTLVTVSS", "VL": "DIEMTQSPSSLSASTGDKVTITCQASQDIAQFLDWYQQRPGDTPKLLIYDASNLAIGVPSRFTGSGSGTDFTFTISSLQPEDIAVYYCQHYDDFPISFGPGTKLETKR", "notes": "also called multiple myeloma antibody 13PL"}}, "biological_target": "T1, MG281F2 construct, residues 278 to 450 with N-terminal 6-His tag and thrombin cleavage site (Mycoplasma genitalium, UniProt P47523 279-452)", "T1 sequence": "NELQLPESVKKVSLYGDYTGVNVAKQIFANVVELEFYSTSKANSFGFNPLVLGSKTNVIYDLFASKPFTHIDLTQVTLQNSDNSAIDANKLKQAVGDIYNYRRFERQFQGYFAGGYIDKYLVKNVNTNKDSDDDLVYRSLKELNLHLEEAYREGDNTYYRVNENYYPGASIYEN", "assay": "Western blot, plasma 13PL as primary antibody", "data": [{"binder": "B1", "values": [{"measurement": "binding result", "result": "no binding (tested: 1 µg/µg and 2 µg/µg)"}]}]}
